The chains are these.
B1: CPEB3 Ribozyme (parent)
chain: UAACAGGGGGCCACAGCAGAAGCGUUCACGUCGCAGCCCCUGUCAGAUUCUGGUGAAUCUGCGAAUUCUGCUGUAUAUCUC

This passage reports self-cleavage results from the RNAGym collection of RNA variant scans (doi:10.1093/nar/gkz1192).

This data set covers variants of B1. Description: self-cleavage, relative activity (ratio to wild type); higher = more cleavage; in vitro, sequencing. The essentials:
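Libraries of CPEB3 self-cleaving ribozyme mutants came from rounds of error-prone PCR and carried barcodes, which DNA sequencing matched to variants. In vitro transcription used T7 RNA polymerase at 37°C for 5 hours, with a further 15 min in DNase I before EDTA stopped the reaction; the ribozymes cleaved during both steps. The RNA was reverse transcribed with template switching and sequenced on Illumina. Relative activity is the cleaved/total read fraction of a variant divided by that of the unmutated ribozyme, averaged over three batches with at least 5 reads.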
As to UAACAGGGGGCCACAGCAGAAGCGUUCACGUCGCAGCCCCUGUCAGAUUCUGGUGAAUCUGAGAAUUCUGCUGUAUACCUC [C62A U78C], the self-cleavage was 0.16. The same measure for UAACAGGGGGCCACAGCAGAAGCGUUCACGUCGCAGCCCCUGUCAGGUUCUGGUGAAUCUGCGGAUUCUGCUGUAUAUCUC [A47G A64G]: 0.9; for UAACAGGGGGCCACAGCAUAAGCGUUCACGUCGCAGCCCCUGUCAGAUUCUGGUGAAUCAGCGAAUUCUGCUGUAUAUCUC [G19U U60A]: 0.45; for UAACAGGGUGCCACAGCAGAAGCGUUCACGUCGCAGCCCCUGUCAGAUUCUGGUGAAUCUGCGAAUUCUACUGUAUAUCUC [G9U G70A]: 0.1. The same measure for UAACAGGGGGCCACAGCAGAGGCGUUCACGUCGCAGCCCCUGUCAUAUUCUGGUGAAUCUGCGAAUUCUGCUGUAUAUCUC [A21G G46U]: 0.36; for UAACAGGGGGCCACAGCAUAAGCGUUCACGUCGCAGCCCCUGUCAGAUACUGGUGAAUCUGCGAAUUCUGCUGUAUAUCUC [G19U U49A]: 0.08; for UAACAGGGGGCCACAGCAGAAGCGUUCACGUCGCAGCCCCUGUCAGAUUCUGGUGGAUCUGCGACUUCUGCUGUAUAUCUC [A56G A65C]: 0.15. Under UAACAGGGGGCCACAGCAGAAGCGUUCACGUCGCAGCCCCUGUCAGAUUCAGGUGAUUCUGCGAAUUCUGCUGUAUAUCUC [U51A A57U] stands 0.53.

For the variant UAACAGGGGGCCACAGCAGAAGCGUUCUCGCCGCAGCCCCUGUCAGAUUCUGGUGAAUCUGCGAAUUCUGCUGUAUAUCUC [A28U U31C], the self-cleavage came to 0.53. Under UGACAGGGGGCCACAGCAGACGCGUUCACGUCGCAGCCCCUGUCAGAUUCUGGUGAAUCUGCGAAUUCUGCUGUAUAUCUC [A2G A21C] stands 0.11; under UAACAGGGGGCCACAGCAGAAGCGUUCACGUCGCAGCCCCUGUCAGAUUCUGGUGGACCUGCGAAUUCUGCUGUAUAUCUC [A56G U58C], 0.38. The same measure for UAACAGGGGGCCACAGCAGAAGCGUUCACGUCGCAGCCCCUGUCAGAUUCUUGUGAAUCUGCGAUUUCUGCUGUAUAUCUC [G52U A65U]: 0.28; for UAACAGGGGGCCACAGCAGAAGCGUUGACGUCGCUGCCCCUGUCAGAUUCUGGUGAAUCUGCGAAUUCUGCUGUAUAUCUC [C27G A35U]: 0.16. The same measure for UAACAGGGGGCCACAGCAGAAGCGUUCACAUCGCAGCCCCUGUCAGAUUCGGGUGAAUCUGCGAAUUCUGCUGUAUAUCUC [G30A U51G]: 0.1.

As to UAACAGGGGGCCACAGCAGAAGCAUUCACGUCGCAGCCCCUGUCAGAUUCUGGUGAAUCUGCGAAUUCUGCUGUAUAGCUC [G24A U78G], the self-cleavage is 0.16. For UAACAGGGGGCCACAGCAGAAGCGUUCACGUCGCAGCCCCUGUCGGAUUCUGGUAAAUCUGCGAAUUCUGCUGUAUAUCUC [A45G G55A], the self-cleavage came out at 0.43. Under UAACAGGGGGCCACAGCAGUAGGGUUCACGUCGCAGCCCCUGUCAGAUUCUGGUGAAUCUGCGAAUUCUGCUGUAUAUCUC [A20U C23G] stands 0.3. The same measure for CAACAGGGGACCACAGCAGAAGCGUUCACGUCGCAGCCCCUGUCAGAUUCUGGUGAAUCUGCGAAUUCUGCUGUAUAUCUC [U1C G10A]: 0.23. Under UAACAGGGGGCCACAGCAGAAGCGUUCACGUCGCAGCCCCUGACAGAUUCUGGUGAAUCUGCGAAUUCUGCUGUAUACCUC [U43A U78C] stands 1.13. Turning to UAACAGGGGGCCACAGCAGAAGCGUUCACGUCGCAGCCCCUGUCAGAAUCCGGUGAAUCUGCGAAUUCUGCUGUAUAUCUC [U48A U51C], the self-cleavage was 0.44. The same measure for UAACAGGGGGCCACAGCAGAAGCGUUCACGUCCCAGCCCCUGUCAGAUUCUGCUGAAUCUGCGAAUUCUGCUGUAUAUCUC [G33C G53C]: 0.07. On to UAACAGGGGGCCACAGCAGAAGCGUUCACGUCGCAGCCCCUGUCAGAUUCUUGUGAACCUGCGAAUUCUGCUGUAUAUCUC [G52U U58C], for which the self-cleavage came to 0.87. Under UAACAGGGGGCCACAGCAGAAGCGUUCACGUCGGAGCCCCUGUCAGAUUCUGGUGAACCUGCGAAUUCUGCUGUAUAUCUC [C34G U58C] stands 0.15; under UAACAGGGGGCCACAGCAGAAGCGUUCACGUCGCAGCCCCUGUCAGAUUCUGGUGAAUCUGCGCAUUCUGCUGUAUAUCUU [A64C C81U], 0.43. The same measure for UAACAGGGGGCCACAGCAGAAGCGUUCACGUCGCUGCCCCUGUCAGAUUCUGGUGAAUCUGAGAAUUCUGCUGUAUAUCUC [A35U C62A]: 0.13. Take UAACACGGGGCCACAGCAGAAGCGUUCACGUCGCAGCCCCUGUCAGAUUCUGGUGAAUCUGCGAAUUCUGCAGUAUAUCUC [G6C U72A]: the self-cleavage was 0.18. Under UAACAGGGGGCCACAGCAGAAGCGUUCACGUCGCAGGCCCUGUCAGAUUCUGGUGAAUCUGCGAAUUCUGCUGUAUACCUC [C37G U78C] stands 0.68; under UAACAGGGGGCCACAGCAGAAGCGUUCACGUCGCAGCCCCUGUCAGAUUCUGGUGAGUCUGCGAAUUCUGCUGCAUAUCUC [A57G U74C], 1.15. The same measure for UAACAGGGGGCCACAGCAGAAGCGUUCACGUCGCAGCACCUGUCAGAUUCUGGUGAAUCUGCGAUUUCUGCUGUAUAUCUC [C38A A65U]: 0.28; for UAACAGGAGGCCACAGCAGUAGCGUUCACGUCGCAGCCCCUGUCAGAUUCUGGUGAAUCUGCGAAUUCUGCUGUAUAUCUC [G8A A20U]: 0.22. Under UAACAGGGCGCCACAGCGGAAGCGUUCACGUCGCAGCCCCUGUCAGAUUCUGGUGAAUCUGCGAAUUCUGCUGUAUAUCUC [G9C A18G] stands 0.16; under UAACAGGGGGCCACAGCAGAAGCGUUCACGUCGCAGCCCCUGUCAGAUUCCGGUGAAUCUCCGAAUUCUGCUGUAUAUCUC [U51C G61C], 0.25.

On to UAACAGGGGGCCACAGCAGAAGCGUUCACGUCGCAGCCCCUGUCAGAAUCUGGUGAAUCUGUGAAUUCUGCUGUAUAUCUC [U48A C62U], for which the self-cleavage was 0.43. Under UAACAGGGGGCCACAGCAGAAGCGUUCACGUCGCAGCCCCUAUCAGAUUCUGGUGAAUCUGCGAAUUCUGCUGUAUAUUUC [G42A C79U] stands 0.36.
